Assay [1] has as its target T1, alpha-thrombin (Homo sapiens, UniProt P00734). Kind of assay: SPR. Background: In SPR one partner is held on a chip, and binding of the other changes the refractive index at the surface.
Assay [2] concerns the target T1, alpha-thrombin. Briefly: inhibition of S-2238 hydrolysis, Morrison fit.
In assay [3] the target is T1, alpha-thrombin. Briefly: inhibition of S-2238 hydrolysis, Kiapp versus substrate concentration regression.

Regarding KPVEAEVAQPKLYQRGEGGNGMEPIPEDVLNEALNA [XC-43 mature peptide], the affinity with alpha-thrombin [1], expressed as Kd, was 3 pM. In addition, the Ki is 6.1 pM in the assay with alpha-thrombin [2] and 7.7 pM with alpha-thrombin [3].
Regarding KPVEAEVAQSNLDECEVEAEVAQPKLYQRGEGGNGMEPIPEDVLNEALNA [XC-42 mature peptide], in the assay with alpha-thrombin [2], the Ki was 18 pM.

(Values after article PMC8573170 (2021).)
